In publication PMC5041490 (Nucleic Acids Research, 2016):

B1: His-G5(1–739) W14A (domain or fragment)
chain: MGQEPRTLPPSPNAYCARCSDAVPGGLFGFAARTSVFLVRVGPGAGESPGTPPFRVIGELVGHTERVSGFTFSHHPGQYNLCATSSDDGTVKIWDVETKTVVTEHALHQHTISTLHWSPRVKDLIVSGDEKGVVFCYWFNRNDSQHLFIEPRTIFCLTCSPHHEDLVAIGYKDGIVVIIDISKKGEVIHRLRGHDDEIHSIAWCPLPGEDCLSINQEETSEEAEITNGNAVAQAPVTKGCYLATGSKDQTIRIWSCSRGRGVMILKLPFLKRRGGGIDPTVKERLWLTLHWPSNQPTQLVSSCFGGELLQWDLTQSWRRKYTLFSASSEGQNHSRIVFNLCPLQTEDDKQLLLSTSMDRDVKCWDIATLECSWTLPSLGGFAYSLAFSSVDIGSLAIGVGDGMIRVWNTLSIKNNYDVKNFWQGVKSKVTALCWHPTKEGCLAFGTDDGKVGLYDTYSNKPPQISSTYHKKTVYTLAWGPPVPPMSLGGEGDRPSLALYSCGGEGIVLQHNPWKLSGEAFDINKLIRDTNSIKYKLPVHTEISWKADGKIMALGNEDGSIEIFQIPNLKLICTIQQHHKLVNTISWHHEHGSQPELSYLMASGSNNAVIYVHNLKTVIESSPESPVTITEPYRTLSGHTAKITSVAWSPHHDGRLVSASYDGTAQVWDALREEPLCNFRGHRGRLLCVAWSPLDPDCIYSGADDFCVHKWLTSMQDHSRPPQGKKSIELEKKRLSQPKA
B2: His-G5(1–739) Y15A (domain or fragment)
chain: MGQEPRTLPPSPNWACARCSDAVPGGLFGFAARTSVFLVRVGPGAGESPGTPPFRVIGELVGHTERVSGFTFSHHPGQYNLCATSSDDGTVKIWDVETKTVVTEHALHQHTISTLHWSPRVKDLIVSGDEKGVVFCYWFNRNDSQHLFIEPRTIFCLTCSPHHEDLVAIGYKDGIVVIIDISKKGEVIHRLRGHDDEIHSIAWCPLPGEDCLSINQEETSEEAEITNGNAVAQAPVTKGCYLATGSKDQTIRIWSCSRGRGVMILKLPFLKRRGGGIDPTVKERLWLTLHWPSNQPTQLVSSCFGGELLQWDLTQSWRRKYTLFSASSEGQNHSRIVFNLCPLQTEDDKQLLLSTSMDRDVKCWDIATLECSWTLPSLGGFAYSLAFSSVDIGSLAIGVGDGMIRVWNTLSIKNNYDVKNFWQGVKSKVTALCWHPTKEGCLAFGTDDGKVGLYDTYSNKPPQISSTYHKKTVYTLAWGPPVPPMSLGGEGDRPSLALYSCGGEGIVLQHNPWKLSGEAFDINKLIRDTNSIKYKLPVHTEISWKADGKIMALGNEDGSIEIFQIPNLKLICTIQQHHKLVNTISWHHEHGSQPELSYLMASGSNNAVIYVHNLKTVIESSPESPVTITEPYRTLSGHTAKITSVAWSPHHDGRLVSASYDGTAQVWDALREEPLCNFRGHRGRLLCVAWSPLDPDCIYSGADDFCVHKWLTSMQDHSRPPQGKKSIELEKKRLSQPKA

Key:
GST-L4 = GST-L4 (UniProt P36578 1-427); assay: pull-down
GST-L3 = GST-L3 (UniProt P39023 1-403); assay: pull-down

Binder	binding result (GST-L4)	binding result (GST-L3)
B1	binds	binds
B2	binds	binds
